Measured values reported in patent CN113072642A (FUZHOU MAIXIN BIOTECHNOLOGY DEV CO LTD, dated 2021).

Target: T1, OCT3/4蛋白 (in tissue sections, immunohistochemistry) (human, UniProt Q01860 1-360, limits assumed)
T1 construct: Endogenous antigen in tumour and normal tissue chips; also called OCT3/4抗原
Assay: immunohistochemistry on tumour tissue chip

T1 sequence (Q01860 whole entry): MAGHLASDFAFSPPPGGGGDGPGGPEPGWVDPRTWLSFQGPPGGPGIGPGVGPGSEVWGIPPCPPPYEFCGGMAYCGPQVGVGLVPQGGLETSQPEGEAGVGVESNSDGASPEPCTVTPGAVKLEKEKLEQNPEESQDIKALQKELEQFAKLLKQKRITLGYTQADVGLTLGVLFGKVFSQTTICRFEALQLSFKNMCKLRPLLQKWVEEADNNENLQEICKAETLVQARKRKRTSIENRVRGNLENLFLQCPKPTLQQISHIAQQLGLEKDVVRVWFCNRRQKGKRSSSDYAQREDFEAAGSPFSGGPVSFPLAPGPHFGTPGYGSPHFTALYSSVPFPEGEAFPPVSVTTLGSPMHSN

B1: 41B1细胞株所分泌的抗OCT3/4蛋白单克隆抗体 (antibody, mouse IgG2b, V domains shown)
VH: VKLQESGGGLVKPGGSLKLSCTASGFTFSTYAMSWVRQTPEKRLEWVAAINSNGGNTYYPDTVKDRFTISRDNAKNTLYLQMSSLRSDDTALYYCARDGYDYWGQGTTLTVSS
VL: DIVMTQDELSLPVSLGDQASISCRSSQSLVHSNGVTYLFWHLQRPGQSPKLLIYRVSNRFSGVPDRFSGSGSGTDFTLKISRVEAEDLGVYFCFQGTHVPFTFGTGTKLEIK
notes: also called OCT3/4(41B1); 41B1分泌的OCT3/4
binding result: binds
